This note sets out measurements from US20070192880.

pKd: −log10 of the molar value.

In one data set the target is T1, ERα (Homo sapiens) (UniProt P03372).
T1 sequence: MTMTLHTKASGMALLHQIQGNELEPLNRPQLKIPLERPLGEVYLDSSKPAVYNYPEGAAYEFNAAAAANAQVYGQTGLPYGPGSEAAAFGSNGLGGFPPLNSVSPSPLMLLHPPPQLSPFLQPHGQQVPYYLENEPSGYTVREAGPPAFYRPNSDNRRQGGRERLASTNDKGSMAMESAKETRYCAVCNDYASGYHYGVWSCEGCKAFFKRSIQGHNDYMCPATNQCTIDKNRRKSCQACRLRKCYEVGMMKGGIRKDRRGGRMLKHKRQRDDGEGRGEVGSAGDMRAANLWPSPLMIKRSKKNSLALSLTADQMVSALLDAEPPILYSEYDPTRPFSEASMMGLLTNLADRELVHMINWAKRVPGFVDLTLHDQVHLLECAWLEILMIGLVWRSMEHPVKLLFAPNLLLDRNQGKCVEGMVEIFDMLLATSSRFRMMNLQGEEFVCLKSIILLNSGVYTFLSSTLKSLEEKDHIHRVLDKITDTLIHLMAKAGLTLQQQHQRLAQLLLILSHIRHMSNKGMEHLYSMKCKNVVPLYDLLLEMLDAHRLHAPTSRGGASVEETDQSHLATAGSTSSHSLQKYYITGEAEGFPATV
Description: EMSA. The note with it: EMSA competition. For orientation: Mobility shift assays separate free from complexed probe on a gel.

Data set [1] deals with T2, CDC ERE binding module (ERα C domain - D hinge - C domain fusion) (UniProt P03372).
T2 sequence: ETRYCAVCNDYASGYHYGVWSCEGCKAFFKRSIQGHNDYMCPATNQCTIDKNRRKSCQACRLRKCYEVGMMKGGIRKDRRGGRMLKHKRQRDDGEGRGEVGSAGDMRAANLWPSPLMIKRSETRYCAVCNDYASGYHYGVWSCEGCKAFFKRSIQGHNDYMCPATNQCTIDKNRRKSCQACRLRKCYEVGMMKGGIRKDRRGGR
The data set is described as follows: EMSA. Conditions: apparent Kd from EMSA competition.

The next data set deals with SID-CDC-SID. The data set is described as follows: cell_activity. The note with it: COS-1; given as decreased about 60% of that observed with parent vector.
SID-CDC-SID, sequence (chain, as listed by the source): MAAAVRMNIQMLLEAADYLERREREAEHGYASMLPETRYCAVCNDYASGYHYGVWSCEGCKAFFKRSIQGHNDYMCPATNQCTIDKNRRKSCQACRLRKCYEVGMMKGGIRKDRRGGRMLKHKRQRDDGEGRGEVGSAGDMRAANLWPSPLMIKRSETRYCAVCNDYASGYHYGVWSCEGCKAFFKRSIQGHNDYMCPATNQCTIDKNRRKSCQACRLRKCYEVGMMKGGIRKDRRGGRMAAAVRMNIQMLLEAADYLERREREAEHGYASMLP
Another data set deals with T3, SID-CDC (UniProt P03372).
T3 sequence: T2 sequence
The data set is described as follows: cell_activity.

A further data set deals with T4, CDC-SID (UniProt P03372).
T4 sequence: T2 sequence
The data set is described as follows: cell_activity.

The target of a further data set is T5, CDC (expressed in cells) (UniProt P03372).
T5 sequence: T2 sequence
Description: cell_activity. Conditions: COS-1; little effect in CHO.

Another data set concerns the target T6, KRAB-CDC-SID (UniProt P03372).
T6 sequence: T2 sequence
Description: cell_activity. Conditions: COS-1.

The target of another data set is T7, SID-CDC-KRAB (UniProt P03372).
T7 sequence: T2 sequence
The data set is described as follows: cell_activity. The note with it: COS-1.

Another data set addresses T8, KRAB-CDC (UniProt P03372).
T8 sequence: T2 sequence
The data set is described as follows: cell_activity. Conditions: COS-1 and CHO; no effect without ERE.

The target in the next data set is T9, CDC-KRAB (UniProt P03372).
T9 sequence: T2 sequence
Description: cell_activity. The note with it: COS-1 and CHO; no effect without ERE.

The target in a further data set is ERα (expressed in cells) (UniProt P03372). Description: cell_activity. Conditions: COS-1, E2; about 2-fold without ligand.
Setting [2] is: COS-1, given as decreased about 60% of that observed with parent vector.
Setting [3] is: COS-1 and CHO, no effect without ERE.

Consider “GGTCANNNTGACC (double strand) [consensus ERE]”, for which the figures for the pKd (with ERα (Homo sapiens); in data set [1]) were 9.59 and 8.83, respectively.
With cathepsin D promoter, the activity with SID-CDC-SID, with SID-CDC (setting [2]) and with CDC-SID (setting [2]) was 60 % repression throughout.
With “GGTCANNNTGACC (double strand) [SV40 enhancer/promoter with one consensus ERE]”, the activity with CDC (expressed in cells) was found to be 50 % repression; with KRAB-CDC-SID it was 95 % repression; with SID-CDC-KRAB, 95 % repression; in the data set with KRAB-CDC, 50 % repression; in the data set with CDC-KRAB it was 80 % repression; in the data set with SID-CDC (setting [3]), 50 % repression. Moreover, the activity with CDC-SID (setting [3]) was determined as 80 % repression.
In the data set with ERα (expressed in cells), complement C3 promoter displayed an activity of 11 fold.
